The results in this text go back to article PMC6474364, “The Carbon Switch at the Level of Pyruvate and Phosphoenolpyruvate in Sulfolobus solfataricus P2” (Frontiers in Microbiology, 2019).

One data set concerns the target T1, PEPS (SSO0883) (Saccharolobus solfataricus, UniProt Q97ZL2).
T1 construct: gene ppsA-1; full-length, codon-optimised synthetic gene in pET11c, E. coli Rosetta (DE3) pRIL; partially purified by heat precipitation; no tag mentioned
T1 sequence (Q97ZL2 1-799): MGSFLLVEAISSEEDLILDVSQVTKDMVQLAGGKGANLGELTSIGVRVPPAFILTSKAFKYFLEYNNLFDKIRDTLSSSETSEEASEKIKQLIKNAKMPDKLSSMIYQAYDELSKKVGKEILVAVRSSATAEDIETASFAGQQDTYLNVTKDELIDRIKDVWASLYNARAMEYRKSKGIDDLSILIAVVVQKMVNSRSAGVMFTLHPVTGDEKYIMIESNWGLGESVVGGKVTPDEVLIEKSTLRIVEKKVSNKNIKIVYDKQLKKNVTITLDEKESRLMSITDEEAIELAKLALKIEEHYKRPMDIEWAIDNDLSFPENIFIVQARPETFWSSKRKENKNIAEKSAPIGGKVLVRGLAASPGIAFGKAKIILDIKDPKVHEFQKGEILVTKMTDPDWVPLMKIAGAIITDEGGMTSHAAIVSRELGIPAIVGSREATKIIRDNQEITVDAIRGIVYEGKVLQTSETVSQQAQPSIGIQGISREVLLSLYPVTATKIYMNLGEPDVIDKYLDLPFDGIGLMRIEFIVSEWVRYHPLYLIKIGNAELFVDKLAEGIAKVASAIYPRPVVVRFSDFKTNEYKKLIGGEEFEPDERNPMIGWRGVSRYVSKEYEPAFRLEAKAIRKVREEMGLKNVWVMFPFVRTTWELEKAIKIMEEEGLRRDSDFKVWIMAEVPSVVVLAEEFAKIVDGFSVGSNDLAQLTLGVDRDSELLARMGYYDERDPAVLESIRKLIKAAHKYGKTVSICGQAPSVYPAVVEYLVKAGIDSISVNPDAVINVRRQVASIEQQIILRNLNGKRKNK
Nature of the data set: discontinuous assay, PEP detected with PK/LDH, NADH […] nm. Type of data set: biochemical. To be noted: read-out: % residual activity at 1 mM.

The target of a further data set is T2, PK (SSO0981) (Saccharolobus solfataricus, UniProt Q97ZD7).
T2 construct: gene pyK; full-length ORF in pET324, E. coli Rosetta (DE3) pRIL; heat precipitation, ion exchange, gel filtration; no tag mentioned
T2 sequence (Q97ZD7 1-452): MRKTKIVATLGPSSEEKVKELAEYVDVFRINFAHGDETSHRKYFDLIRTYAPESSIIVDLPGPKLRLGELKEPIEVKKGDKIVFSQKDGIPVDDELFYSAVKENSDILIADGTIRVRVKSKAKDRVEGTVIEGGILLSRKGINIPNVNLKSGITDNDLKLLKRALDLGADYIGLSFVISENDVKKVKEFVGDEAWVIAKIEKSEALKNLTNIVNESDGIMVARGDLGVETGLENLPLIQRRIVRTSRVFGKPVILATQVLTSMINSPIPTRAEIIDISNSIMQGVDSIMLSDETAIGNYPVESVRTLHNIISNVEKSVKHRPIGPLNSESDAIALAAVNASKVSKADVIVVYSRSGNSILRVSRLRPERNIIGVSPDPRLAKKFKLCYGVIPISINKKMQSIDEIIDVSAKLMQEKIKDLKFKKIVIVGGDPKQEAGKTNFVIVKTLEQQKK
Nature of the data set: continuous LDH-coupled assay, NADH […] nm. Type of data set: biochemical. The settings on record: non-competitive, allosteric; printed Ki equals the approximate concentration for 50% inhibition; half-saturating 0.03 mM PEP, 2 mM ADP, 10 mM MgCl2, 60°C (b61 says 70°C).

Substrate in data set [1]: CC(=O)C(=O)O
Nature of the data set: purified protein. Type of data set: biochemical, Saccharolobus solfataricus. The settings on record: 70°C, pH 7.0, 100 mM Tris/HCl, 10 mM MgCl2, co-substrate ATP, anabolic direction.

Substrate in data set [2]: Nc1ncnc2c1ncn2[C@@H]1O[C@H](COP(=O)(O)OP(=O)(O)OP(=O)(O)O)[C@@H](O)[C@H]1O
Nature of the data set: purified protein. Type of data set: biochemical, Saccharolobus solfataricus. The settings on record: 70°C, pH 7.0, 100 mM Tris/HCl, 10 mM MgCl2, co-substrate pyruvate, anabolic direction.

Substrate in data set [3]: Nc1ncnc2c1ncn2[C@@H]1O[C@H](COP(=O)(O)OP(=O)(O)O)[C@@H](O)[C@H]1O
Nature of the data set: purified protein. The settings on record: 70°C, pH 6.5, 0.1 M HEPES, 10 mM MgCl2, co-substrate PEP. Format: biochemical, Saccharolobus solfataricus.

Substrate in data set [4]: C=C(OP(=O)(O)O)C(=O)O
Nature of the data set: purified protein. Format: biochemical, Saccharolobus solfataricus. The settings on record: 70°C, pH 6.5, 0.1 M HEPES, 10 mM MgCl2, co-substrate ADP.

On to `Nc1ncnc2c1ncn2[C@@H]1O[C@H](COP(=O)(O)O)[C@@H](O)[C@H]1O` [AMP], for which the remaining activity at 1000 µM on PEPS (SSO0883) was around 80%.
On the same count and under the same terms, the result for `O=C(O)CCC(=O)C(=O)O` [α-ketoglutarate] reads around 80%.
Usually IC50 stands for the point on the concentration scale where inhibition reaches its midpoint. Lower therefore signals greater potency in that assay. Regarding `Nc1ncnc2c1ncn2[C@@H]1O[C@H](COP(=O)(O)OP(=O)(O)OP(=O)(O)O)[C@@H](O)[C@H]1O` [ATP], the IC50 at PK (SSO0981) was found to be 800 µM.

B1: PEPS (SSO0883) (Saccharolobus solfataricus P2) (protein)
chain: T1 sequence (Q97ZL2 1-799)
notes: full-length, codon-optimised synthetic gene in pET11c, E. coli Rosetta (DE3) pRIL; partially purified by heat precipitation; no tag mentioned
A word on the Km: it is the concentration of substrate that gives half-maximal velocity. One may read the Vmax as the rate approached at saturating substrate. As a reminder, the kcat is the maximal rate divided by the concentration of active sites. One may read the kcat/Km as the second-order rate constant that governs catalysis at low substrate concentration. Consider B1, for which, in “purified protein [1]”, the Km came to 460 µM, the Vmax worked out at 0.32 µmol/min/mg, the kcat was found to be 0.48 s⁻¹ and the kcat/Km came to 1040 M⁻¹ s⁻¹. Moreover, in the data set “purified protein [2]”, the Michaelis-Menten constant (Km) was found to be 610 µM, the maximum rate (Vmax) turned out to be 0.22 µmol/min/mg, the kcat was found to be 0.33 s⁻¹ and the kcat/Km was 530 M⁻¹ s⁻¹.

B2: PK (SSO0981) (Saccharolobus solfataricus P2) (protein)
chain: T2 sequence (Q97ZD7 1-452)
notes: full-length ORF in pET324, E. coli Rosetta (DE3) pRIL; heat precipitation, ion exchange, gel filtration; no tag mentioned
For B2, in “purified protein [3]”, the Km was found to be 70 µM, the Vmax amounted to 70.8 µmol/min/mg, the kcat came to 58.8 s⁻¹ and the kcat/Km was 852000 M⁻¹ s⁻¹. Further, in the data set “purified protein [4]”, the Km is 90 µM, the Vmax is 70.4 µmol/min/mg, the kcat worked out at 58.4 s⁻¹ and the kcat/Km came to 628000 M⁻¹ s⁻¹.
